The target of experiment [1] is T1, β-amyloid peptide (1-42) (UniProt P05067 672-713).
T1 construct: range 1-42; The range 1-42 counts on the Aβ peptide, not on the APP precursor; also called Aβ 1-42; Amyloid-beta 1-42
Nature of the experiment: competitive ELISA on coated Aβ 1-42 against biotinylated Mu10D5; mean of three experiments (SD 0.6 µg/mL), second set; second set of three experiments (SD 0.6 µg/mL). On the technique in general: An ELISA detects its analyte on a solid surface through an enzyme-linked reagent.
Protocol: (§1) After washing the wells with phosphate buffered saline (PBS) containing 0.1% Tween 20 (Washing Buffer) using an ELISA plate washer, the wells were blocked by adding 300 μL of SuperBlock reagent (Pierce) per well. After 30 minutes of blocking, the wells were washed with Washing Buffer and excess liquid was removed.
(§2) As a background control, 100 μl of ELISA Buffer was added. The ELISA plate was incubated at room temperature for 90 min. […] The plate was incubated at room temperature for 30 min and washed with Washing Buffer. For color development, 100 μl/well of ABTS Peroxidase Substrate (Kirkegaard & Perry Laboratories) was added. Color development was stopped by adding 100 μl/well of 2% oxalic acid. […] The absorbances were plotted against the log of the competitor concentration, curves were fit to the data points (using Prism) and the IC50 was determined for each antibody using methods well-known in the art.

The target of experiment [2] is T1, β-amyloid peptide (1-42). Nature of the experiment: BIAcore 2000 SPR; antibody captured, Aβ flowed over; biphasic, first affinity; Aβ 1-42; biphasic, high-affinity component. (SPR reads the build-up and loss of mass on a sensor chip optically.)
Protocol: (§3) Antibody affinity (KD=Kd/Ka) was determined using a BIAcore biosensor 2000 and data analyzed with BIAevaluation (v. 3.1) software. A capture antibody (rabbit anti-mouse Ig or anti-human Ig) was coupled via free amine groups to carboxyl groups on flow cell 2 of a biosensor chip (CM5) using N-ethyl-N-dimethylaminopropyl carbodiimide and N-hydroxysuccinimide (EDC/NHS). A non-specific rabbit IgG was coupled to flow cell 1 as a background control. Monoclonal antibodies were captured to yield 300 resonance units (RU). […] To regenerate the chip, bound anti-Aβ antibody was eluted from the chip using a wash with glycine-HCl (pH 2). A control injection containing no amyloid-beta served as a control for baseline subtraction.
Experiment [3] has as its target T1, β-amyloid peptide (1-42). Put plainly: BIAcore 2000 SPR; antibody captured, Aβ flowed over; biphasic, second affinity; Aβ 1-42; biphasic, low-affinity component.
Protocol: as §3
Experiment [4] deals with T2, Amyloid-beta 1-40 (UniProt P05067 672-711).
T2 construct: range 1-40; The range 1-40 counts on the Aβ peptide, not on the APP precursor; also called Aβ 1-40
Nature of the experiment: BIAcore 2000 SPR; antibody captured by anti-human Ig, Aβ flowed over; Aβ 1-40; monophasic.
Protocol: as §3

In experiment [5] the target is T3, human Aβ fragment 10-20 (human, UniProt P05067 681-691).
T3 construct: range 10-20; also called human amyloid beta 10-20
T3 peptide (looked up): YEVHHQKLVFF
Nature of the experiment: BIAcore, single concentration of peptide.
Description: (§4) All dilutions were made with HEPES buffered saline containing Tween 20. A single concentration of a variety of fragments of human Aβ or mouse Aβ 1-40 (BioSource International) was used.

Experiment [6] has as its target T4, mouse Aβ 1-40 (mouse, UniProt P12023 672-711).
T4 construct: range 1-40; The range counts on the Aβ peptide, not on the mouse APP precursor
T4 peptide (looked up): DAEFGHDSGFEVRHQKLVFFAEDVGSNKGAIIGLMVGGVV
Nature of the experiment: BIAcore, single concentration of peptide.
Description: as §4

Experiment [7] deals with T5, human amyloid beta fragment 1-20 (human, UniProt P05067 672-691).
T5 construct: range 1-20; also called human Aβ 1-20
T5 peptide (looked up): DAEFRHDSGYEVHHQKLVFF
Nature of the experiment: BIAcore, single concentration of peptide.
Description: as §4

The target in experiment [8] is T6, human Aβ fragment 16-25 (human, UniProt P05067 687-696).
T6 construct: range 16-25; also called human amyloid beta 16-25
T6 peptide (looked up): KLVFFAEDVG
Nature of the experiment: BIAcore, single concentration of peptide.
Description: as §4

In experiment [9] the target is T7, human amyloid beta fragment 1-10 (human, UniProt P05067 672-681).
T7 construct: range 1-10; also called human Aβ 1-10
T7 peptide (looked up): DAEFRHDSGY
Put plainly: BIAcore, single concentration of peptide.
Description: as §4

Experiment [10] concerns the target T1, β-amyloid peptide (1-42). Put plainly: competitive ELISA on coated Aβ 1-42 against biotinylated Mu10D5; mean of three experiments (SD 11.8 µg/mL), first set; first set of three experiments (SD 11.8 µg/mL).
Protocol: as §1, §2

B1: humanized 10D5 antibody (antibody, human IgG1, kappa, V domains shown)
VH: QVTLKESGPVLVKPTETLTLTCTFSGFSLSTSGMGVSWIRQPPGKALEWLAHIYWDDDKRYNPSLKSRLTISKDTSKSQVVLTMTNMDPVDTATYYCVRRPITPVLVDAMDYWGQGTLVTVSS
VL: DVVMTQSPLSLPVTLGQPASISCRSSQNIIHSNGNTYLEWYLQKPGQSPRLLIYKVSNRFSGVPDRFSGSGSGTDFTLKISRVEAEDVGVYYCFQGSHVPLTFGGGTKVEIKR
notes: also called Hu10D5
The term IC50 denotes the midpoint of a concentration-inhibition curve. A higher IC50 goes with weaker potency. As usually defined, the Kd is the equilibrium constant for the complex coming apart. Read a low Kd as higher affinity. As for B1, the IC50 in experiment [1] is 16 µg/mL; in experiment [10], 49.1 µg/mL. In addition, the dissociation constant Kd came out at 0.19 nM in [2], 1020 nM in [3] and 209 nM in experiment [4]. Besides, the binding result in experiment [5] was “no binding”; in experiment [6], “no binding”; in experiment [7] it was “binds”; in experiment [8], “no binding”; in [9] it was “binds”.

(Values after patent publication US20050142131A1 (Eli Lilly, published 2005).)
